Where no end group is shown, it is not given here. The star is where a group is joined. GalNAc = N-acetyl galactosamine (O-linked to Thr, Tn antigen); Biotin = O=C1N[C@H]2[C@H](CS[C@H]2CCCCC(=O)*)N1
Experiments:
[1] = molecular target: T1, Tn-OTS8 peptide ERGT(GalNAc)KPPLEELSGK-biotin, monomer (murine); assay: flow cytometry of CAR-transduced mouse T cells with biotinylated peptide
T1 construct: also called glycosylated OTS-8 peptide (biotinylated)
T1 peptide: ERGT(GalNAc)KPPLEELSGK(Biotin)

[2] = molecular target: T2, Tn-OTS8 peptide KAPLVPTQRERGT(GalNAc)KPPLEELSTSATSDHDH (murine, GalNAc (Tn) on the Thr of ...RERGT(GalNAc)KPP...); assay: ELISA, peptide coated at 2.5 or 5 µg/ml, biotinylated scFv, streptavidin-HRP
T2 construct: Coated on ELISA plates at 2.5 or 5 µg/ml; also called OTS8p with Tn
T2 peptide: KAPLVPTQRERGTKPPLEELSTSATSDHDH

Tn-OTS8 peptide tetramer = molecular target: T3, Tn-OTS8 peptide tetramer (murine, UniProt P22629 37-163 (Streptomyces avidinii entry), limits assumed, PE label; GalNAc (Tn) on Thr 4; C-terminal Lys-biotin); assay: flow cytometry of yeast-displayed clone with 10 nM OTS8p tetramer [B]
T3 construct: How the tetramer was made is not spelled out; streptavidin-PE is the reagent named with it; also called Tn-OTS8p tetramer; tetramers of glycosylated OTS-8 peptide

[3] = molecular target: T1, Tn-OTS8 peptide …; assay: Table 3, column 'Tn-linked antigen' recognized by the scFv
[4] = molecular target: T1, Tn-OTS8 peptide …; assay: flow cytometry of yeast-displayed clone with 1 or 10 nM Tn-OTS8 peptide
Description: FIG. 20. […] 10 clones were isolated from Tn-OTS8 peptide-sorted post-sort-4 and post-sort-5 populations. Each clone was stained with 1 or 10 nM Tn-OTS8 peptide and analyzed by flow cytometry. The mean fluorescence units (MFUs) of each clone is plotted on Y-axis. […] In addition, plasmid DNA was isolated from each clone to determine the kind of mutation(s), and frequency of mutation(s) (n). The sequence of wild-type (wt) and mutated residues is shown in black and maroon, respectively.

[5] = molecular target: T1, Tn-OTS8 peptide …; assay: yeast display, flow cytometry titration with peptide
[6] = molecular target: T1, Tn-OTS8 peptide …; assay: yeast display titration compared with a literature value
[7] = molecular target: T1, Tn-OTS8 peptide …; assay: yeast display dissociation compared with a literature value
Description: (§1) FIG. 21. […] (B) To determine their off-rates, each mutant was stained with 30 nM biotinylated Tn-OTS8 peptide. After washing, the mutants were stained with 100 nM Tn-OTS8 peptide (not biotinylated). The decrease in binding to biotinylated Tn-OTS8p by each mutant was measured over a period of 4 hours, to calculate approximate half-lives (t_{1/2}) and off-rates (koff). […] See Brooks et al., Proc. Natl. Acad. Sci. (USA) 107(22):10056-10061 (2010).

[8] = molecular target: T1, Tn-OTS8 peptide …; assay: yeast display, 30 nM biotinylated peptide chased with 100 nM unbiotinylated peptide over 4 hours
Description: as §1

[9] = molecular target: T1, Tn-OTS8 peptide …; assay: flow cytometry titration of the yeast-displayed mutant with biotinylated OTS8p, 0.1 to 100 nM [A]
[10] = molecular target: T1, Tn-OTS8 peptide …; assay: dissociation on yeast: 30 nM biotinylated Tn-OTS8 peptide, wash, chase with 100 nM non-biotinylated peptide; % binding over 4 hours [B]
Description: as §1

[11] = molecular target: T1, Tn-OTS8 peptide …; assay: dissociation on yeast: 30 nM biotinylated Tn-OTS8 peptide, wash, chase with 100 nM non-biotinylated peptide; sheet adds: 30-fold slower than 237mAb:OTS8p [B]
Description: as §1

GTKA = molecular target: T4, GTKA; assay: ELISA; x axis = coating concentration of the peptide; 237Ab fixed at 10 µg/ml [left]
T4 construct: truncation series from GTKAAAA; also called Tn-peptide GTKA, immobilized (C-terminal truncation)
T4 peptide: Biotin-APLVPTQRERGT(GalNAc)KA

GTK = molecular target: T5, GTK; assay: as above
T5 construct: truncation series from GTKAAAA; also called Tn-peptide GTK, immobilized (C-terminal truncation)
T5 peptide: Biotin-APLVPTQRERGT(GalNAc)K

T3 sequence (P22629 37-163 limits assumed): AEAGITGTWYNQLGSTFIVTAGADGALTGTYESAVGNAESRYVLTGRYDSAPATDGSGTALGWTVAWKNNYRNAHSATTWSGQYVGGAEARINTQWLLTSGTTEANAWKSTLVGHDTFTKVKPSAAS

B1: 237-LGQ-CAR on transduced C57BL/6 mouse T cells (other)
scFv: DIQLTQSPLSLPVSLGDQASISCRSSQSLVHSNGNTYLHWYLQKPGQSPKLLIYKVSNRFSGVPDRFSGSGSGTDFTLKISSVEAEDLGVYFCSQSLGQPTFGGGTKLEIKGGGGSGGGGSGGGGSQVQLQQSGGGLVQPGGSMKIFCAASGFTFSDAWMDWVRQSPEKGLEWVAEIRNKANNHETYYAESVKGRFTITRDDSKSRMSLQMNSLRAEDTGIYYCSGGKVRNAYWGQGTTVTVSS
notes: also called CAR with dual specificity (LGQ); not shown: hinge, CD28 and CD3zeta parts of the CAR
binding result [1]: binds

B2: soluble 237 scFv monomer (biotinylated) (scFv)
scFv: DIQLTQSPLSLPVSLGDQASISCRSSQSLVHSNGNTYLHWYLQKPGQSPKLLIYKVSNRFSGVPDRFSGSGSGTDFTLKISSVEAEDLGVYFCSQSTHVPTFGGGTKLEIKGGGGSGGGGSGGGGSQVQLQQSGGGLVQPGGSMKIFCAASGFTFSDAWMDWVRQSPEKGLEWVAEIRNKANNHETYYAESVKGRFTITRDDSKSRMSLQMNSLRAEDTGIYYCSGGKVRNAYWGQGTTVTVSS
modifications: biotin on the C-terminal Avitag
notes: also called monomeric scFv; b237; not shown: N-terminal 6xHis tag; C-terminal Avitag
Kd [2]: 5 nM

B3: MLV (wt CDRL2: KVS) (scFv)
scFv (VL-linker-VH): DIQLTQSPLSLPVSLGDQASISCRSSQSLVHSNGNTYLHWYLQKPGQSPKLLIYMLVNRFSGVPDRFSGSGSGTDFTLKISSVEAEDLGVYFCSQSTHVPTFGGGTKLEIKGGGGSGGGGSGGGGSQVQLQQSGGGLVQPGGSMKIFCAASGFTFSDAWMDWVRQSPEKGLEWVAEIRNKANNHETYYAESVKGRFTITRDDSKSRMSLQMNSLRAEDTGIYYCSGGKVRNAYWGQGTTVTVSS
binding result (Tn-OTS8 peptide tetramer): no binding (tested: 10 nM)

B4: yeast-displayed 237 scFv LGQ mutant (scFv)
scFv: DIQLTQSPLSLPVSLGDQASISCRSSQSLVHSNGNTYLHWYLQKPGQSPKLLIYKVSNRFSGVPDRFSGSGSGTDFTLKISSVEAEDLGVYFCSQSLGQPTFGGGTKLEIKGGGGSGGGGSGGGGSQVQLQQSGGGLVQPGGSMKIFCAASGFTFSDAWMDWVRQSPEKGLEWVAEIRNKANNHETYYAESVKGRFTITRDDSKSRMSLQMNSLRAEDTGIYYCSGGKVRNAYWGQGTTVTVSS
notes: not shown: yeast display carriers: N-terminal Aga2 and HA tag, C-terminal c-myc tag
binding result [3]: binds

B5: -VWE (wt: STHV) (scFv)
scFv (VL-linker-VH): DIQLTQSPLSLPVSLGDQASISCRSSQSLVHSNGNTYLHWYLQKPGQSPKLLIYKVSNRFSGVPDRFSGSGSGTDFTLKISSVEAEDLGVYFCSQSVWEPTFGGGTKLEIKGGGGSGGGGSGGGGSQVQLQQSGGGLVQPGGSMKIFCAASGFTFSDAWMDWVRQSPEKGLEWVAEIRNKANNHETYYAESVKGRFTITRDDSKSRMSLQMNSLRAEDTGIYYCSGGKVRNAYWGQGTTVTVSS
notes: isolated after sort 5 with Tn-OTS8p; also called clone O5-8
binding result [4]: binds

B6: T-WA (wt: STHV) (scFv)
scFv (VL-linker-VH): DIQLTQSPLSLPVSLGDQASISCRSSQSLVHSNGNTYLHWYLQKPGQSPKLLIYKVSNRFSGVPDRFSGSGSGTDFTLKISSVEAEDLGVYFCSQTTWAPTFGGGTKLEIKGGGGSGGGGSGGGGSQVQLQQSGGGLVQPGGSMKIFCAASGFTFSDAWMDWVRQSPEKGLEWVAEIRNKANNHETYYAESVKGRFTITRDDSKSRMSLQMNSLRAEDTGIYYCSGGKVRNAYWGQGTTVTVSS
notes: isolated after sort 4 with Tn-OTS8p; also called clones O4-1, O4-2, O4-9
binding result [4]: binds

B7: --WG (wt: STHV) (scFv)
scFv (VL-linker-VH): DIQLTQSPLSLPVSLGDQASISCRSSQSLVHSNGNTYLHWYLQKPGQSPKLLIYKVSNRFSGVPDRFSGSGSGTDFTLKISSVEAEDLGVYFCSQSTWGPTFGGGTKLEIKGGGGSGGGGSGGGGSQVQLQQSGGGLVQPGGSMKIFCAASGFTFSDAWMDWVRQSPEKGLEWVAEIRNKANNHETYYAESVKGRFTITRDDSKSRMSLQMNSLRAEDTGIYYCSGGKVRNAYWGQGTTVTVSS
notes: isolated after sort 4 with Tn-OTS8p; also called clone O4-3
binding result [4]: binds

B8: yeast-displayed 237 scFv TNGK mutant (scFv, not shown: large carriers; small tags and cut ends)
scFv: DIQLTQSPLSLPVSLGDQASISCRSSQSLVHSNGNTYLHWYLQKPGQSPKLLIYKVSNRFSGVPDRFSGSGSGTDFTLKISSVEAEDLGVYFCSQTNGKPTFGGGTKLEIKGGGGSGGGGSGGGGSQVQLQQSGGGLVQPGGSMKIFCAASGFTFSDAWMDWVRQSPEKGLEWVAEIRNKANNHETYYAESVKGRFTITRDDSKSRMSLQMNSLRAEDTGIYYCSGGKVRNAYWGQGTTVTVSS
binding result [3]: binds

B9: 237-TNGK-CAR on transduced C57BL/6 mouse T cells (other)
scFv: DIQLTQSPLSLPVSLGDQASISCRSSQSLVHSNGNTYLHWYLQKPGQSPKLLIYKVSNRFSGVPDRFSGSGSGTDFTLKISSVEAEDLGVYFCSQTNGKPTFGGGTKLEIKGGGGSGGGGSGGGGSQVQLQQSGGGLVQPGGSMKIFCAASGFTFSDAWMDWVRQSPEKGLEWVAEIRNKANNHETYYAESVKGRFTITRDDSKSRMSLQMNSLRAEDTGIYYCSGGKVRNAYWGQGTTVTVSS
notes: also called CAR with dual specificity (TNGK); not shown: hinge, CD28 and CD3zeta parts of the CAR
binding result [1]: binds

B10: yeast-displayed 237 scFv WE mutant (scFv)
scFv: DIQLTQSPLSLPVSLGDQASISCRSSQSLVHSNGNTYLHWYLQKPGQSPKLLIYKVSNRFSGVPDRFSGSGSGTDFTLKISSVEAEDLGVYFCSQSTWEPTFGGGTKLEIKGGGGSGGGGSGGGGSQVQLQQSGGGLVQPGGSMKIFCAASGFTFSDAWMDWVRQSPEKGLEWVAEIRNKANNHETYYAESVKGRFTITRDDSKSRMSLQMNSLRAEDTGIYYCSGGKVRNAYWGQGTTVTVSS
notes: as for B4
Kd [5]: ~5 nM | fold higher affinity than the 237 IgG Fab domain (literature SPR) [6]: ~30 fold | fold slower off-rate than the 237 monoclonal antibody Fab with OTS8 peptide (literature) [7]: 30 fold | half-life (t1/2) [8]: ~30 min | Kd [9]: 4.3 nM | t1/2 [10]: 27 min | koff [11]: 0.00042 s⁻¹

B11: 237 monoclonal antibody (antibody, V domains shown)
VH: QVQLQQSGGGLVQPGGSMKIFCAASGFTFSDAWMDWVRQSPEKGLEWVAEIRNKANNHETYYAESVKGRFTITRDDSKSRMSLQMNSLRAEDTGIYYCSGGKVRNAYWGQGTTVTVSS
VL: DIQLTQSPLSLPVSLGDQASISCRSSQSLVHSNGNTYLHWYLQKPGQSPKLLIYKVSNRFSGVPDRFSGSGSGTDFTLKISSVEAEDLGVYFCSQSTHVPTFGGGTKLEIK
notes: Murine monoclonal IgG
binding result (GTKA): no binding (tested: 1000 nM peptide for coating) | binding result (GTK): no binding (tested: 1000 nM peptide for coating)

Source: patent publication US20220047631A1 (UNIVERSITY OF CHICAGO, published 2022)
